According to patent US20240254220A1, “COMBINED THERAPY USING ANTI-CD300C ANTIBODY” (CentricsBio, Inc., priority 2021, published 2024):

System: A549 (human lung cancer cell line)
Test: A549 cancer cell growth inhibition (CCK-8), CL7 and Imfinzi
Assay type: cell-based
Conditions: A549, 0% FBS, 10 μg/mL each, 5 days
Text: In order to identify cancer cell growth inhibitory effects by combined administration of the anti-CD300c monoclonal antibody CL7 and an immunotherapeutic agent, the cancer cell growth inhibitory effects were compared using A549 (human lung cancer cell line) and MDA-MB-231 (human breast cancer cell line). Specifically, the cells were dispensed into a 96-well plate at 2×10^4 cells (A549) or 3×10^4 cells (MDA-MB-231) under 0% fetal bovine serum (FBS) conditions, and at 6×10^3 cells (A549) or 1×10^4 cells (MDA-MB-231) under 0.1% fetal bovine serum conditions. Subsequently, the cells were treated with the anti-CD300c monoclonal antibody and Imfinzi at 10 μg/mL alone or in combination, followed by incubation for 5 days. For a control group, the cells were treated with the same amount of phosphate buffer solution (PBS). Then, the cells were treated with CCK-8 (DOJINDO), and the absorbance was measured at OD 450 nm. The results are shown in FIG. 33 (A549) and FIG. 34 (MDA-MB-231).

B1: CL7: anti-CD300c monoclonal antibody, VH3VL1 phage library, VH SEQ ID 327, VL SEQ ID 328 (antibody, V domains shown)
VH: EVQLLESGGGLVQPGGSLRLSCAASGFTFSRYAMSWVRQAPGKGLEWVSAISGSGGSTYYADSVKGRFTISRDNSKNTLYLQMNSLRAEDTAVYYCARSSQGIFDIWGQGTLVTVSS
VL: QSVLTQPPSASGTPGQRVTISCSGNNIGTRRVHWYQQLPDTAPKLLIYSKNNRPSGVPDRFSGSKSGTSASLAISGLRSEDEADYYCAAWDDSLSGPVFGGGTKLTVL
modifications: CL7 Heavy Chain Variable Region; CL7 Light Chain Variable Region
cell growth inhibitory effect compared with control group: 17%
